The source of these data is patent publication US20190010243A1.

One test concerns the target CD32A^H (UniProt P12318). Nature of the test: SPR (BIACORE); koff compared with wild-type Fc.
Test [1] addresses soluble human FcγRIIB (human) (UniProt P31994). Nature of the test: SPR (BIACORE); koff compared with wild-type Fc.
Test [2] has as its target soluble human FcγRIIIA F158 (human) (UniProt P08637). Nature of the test: SPR (BIACORE); koff compared with wild-type Fc. Background: Surface plasmon resonance follows binding to a sensor surface in real time, without labels.
Test [3] deals with soluble human FcγRIIIA V158 (human) (UniProt P08637). The experiment in a line: SPR (BIACORE); koff compared with wild-type Fc.
Test [4] has as its target soluble human FcRn (human) (UniProt P55899). The experiment in a line: SPR (Biacore 3000); ch4420 captured on protein-FITC surface; 500 nM hFcRn injected; pH 6.0.
UniProt P55899, sequence (P55899 24-297 limits assumed, chain 1 of 2): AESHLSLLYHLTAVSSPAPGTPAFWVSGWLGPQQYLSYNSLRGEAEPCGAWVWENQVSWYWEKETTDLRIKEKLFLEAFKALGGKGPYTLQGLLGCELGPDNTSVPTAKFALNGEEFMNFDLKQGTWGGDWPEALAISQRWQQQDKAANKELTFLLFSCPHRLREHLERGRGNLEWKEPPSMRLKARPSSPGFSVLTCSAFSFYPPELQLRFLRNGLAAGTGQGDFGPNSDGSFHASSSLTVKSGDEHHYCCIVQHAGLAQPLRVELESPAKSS
UniProt P55899, sequence (P61769 21-119 limits assumed, chain 2 of 2, further chain): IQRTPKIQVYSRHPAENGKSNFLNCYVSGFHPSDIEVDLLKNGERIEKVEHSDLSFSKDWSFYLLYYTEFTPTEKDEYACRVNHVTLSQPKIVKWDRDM

UniProt P31994, sequence (P31994 43-217 limits assumed): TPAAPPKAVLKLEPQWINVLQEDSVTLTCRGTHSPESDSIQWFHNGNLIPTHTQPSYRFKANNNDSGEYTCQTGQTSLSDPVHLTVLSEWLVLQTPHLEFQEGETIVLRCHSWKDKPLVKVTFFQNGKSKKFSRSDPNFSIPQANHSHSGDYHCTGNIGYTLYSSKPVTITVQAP
UniProt P12318, sequence (P12318 34-217 limits assumed): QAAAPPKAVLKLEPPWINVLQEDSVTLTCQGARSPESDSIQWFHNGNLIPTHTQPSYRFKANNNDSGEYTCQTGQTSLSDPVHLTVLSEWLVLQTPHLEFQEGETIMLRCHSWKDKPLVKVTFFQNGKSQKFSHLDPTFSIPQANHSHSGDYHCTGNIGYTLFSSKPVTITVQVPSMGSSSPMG

For Fc mutant 15 (R292P V305I P396L), the ratio WT koff/mutant koff in the test with CD32A^H came to 1.5 fold; in test [1] it was 0.9 fold; in test [2], 1.9 fold; in test [3] it was 1.9 fold.

For Fc mutant 5 (Y300L), the ratio WT koff/mutant koff turned out to be 2.9 fold with CD32A^H, 1.2 fold in test [1] and 1.2 fold in test [2].

With “Fc mutant 18 (F243L R292P Y300L V305I P396L)”, the ratio WT koff/mutant koff with CD32A^H came to 3.2 fold; in test [1], 1.4 fold; in test [2], 8.3 fold; in test [3], 10.1 fold.

Substance ch4420 variant H435K (antibody) registered a fold increase of binding response over wild type in test [4] of under 4 fold.

As to Fc mutant 8 (P396L), the figures for the ratio WT koff/mutant koff (in the test with CD32A^H; in test [1]; in test [3]) were 1.6 fold, 2.6 fold and 1.3 fold, respectively.

For Fc mutant 13 (F243L R292P V305I), the ratio WT koff/mutant koff in the test with CD32A^H amounted to 0.2 fold; in test [1], 0.1 fold; in test [2], 1.4 fold; in test [3], 2.6 fold.

Regarding Fc mutant 4 (S298N), in test [1], the ratio WT koff/mutant koff stood at 0.2 fold.

In the case of Fc mutant 3 (R292P), the ratio WT koff/mutant koff was 0.7 fold in the test with CD32A^H, 0.3 fold in test [1], 1.6 fold in test [2] and 2.4 fold in test [3].

Fc mutant 9 (F243L P396L): the ratio WT koff/mutant koff in the test with CD32A^H is 1.5 fold; in test [1], 1.6 fold.

Fc mutant 11 (R292P V305I): the ratio WT koff/mutant koff in the test with CD32A^H stood at 0.8 fold; in test [1], 0.4 fold.

For the substance Fc mutant 10 (F243L R292P), the ratio WT koff/mutant koff with CD32A^H came out at 0.5 fold; in test [1], 0.2 fold; in test [3], 4 fold.

As to Fc mutant 1 (F243L), the ratio WT koff/mutant koff came to 0.6 fold with CD32A^H, 0.8 fold in test [1] and 4.8 fold in test [3].

Take Fc mutant 2 (D270E): the ratio WT koff/mutant koff in the test with CD32A^H was 2.2 fold; in test [1], 0.4 fold; in test [3] it was 1.3 fold.

On to Fc mutant 14 (F243L R292P P396L), for which the ratio WT koff/mutant koff in the test with CD32A^H came out at 1.4 fold; in test [1] it was 0.4 fold; in test [3] it was 6.3 fold.

Turning to Fc mutant 6 (V305I), the ratio WT koff/mutant koff with CD32A^H is 1.3 fold; in test [1], 1.2 fold; in test [2], 0.6 fold; in test [3], 0.9 fold.

For the substance Fc mutant 16 (F243L R292P Y300L P396L), the ratio WT koff/mutant koff came out at 1.7 fold with CD32A^H, 1.1 fold in test [1], 5.6 fold in test [2] and 10.1 fold in test [3].

Turning to Fc mutant 17 (F243L R292P V305I P396L), the ratio WT koff/mutant koff turned out to be 0.8 fold with CD32A^H, 0.4 fold in test [1], 2.3 fold in test [2] and 4 fold in test [3].

As for Fc mutant 12 (F243L R292P Y300L), the ratio WT koff/mutant koff was 1 fold with CD32A^H, 0.6 fold in test [1], 4.6 fold in test [2] and 7.4 fold in test [3].

Turning to Fc mutant 7 (A330V), the ratio WT koff/mutant koff with CD32A^H amounted to 0.4 fold; in test [1] it was 0.3 fold; in test [2], 1.2 fold; in test [3], 0.6 fold.
